In publication PMC3170999 (Molecular cancer therapeutics, 2011):

What was measured:
Biotinylated human IGF1 = Biotinylated human IGF1 (human, UniProt P05019, biotin); test: flow cytometry on cells
Biotinylated human IGF2 = Biotinylated human IGF2 (Homo sapiens, UniProt P01344, biotin); test: flow cytometry on cells
Human IGF2 [1] = biological target: T1, Human IGF2 (Homo sapiens, UniProt P01344); test: SPR
Recombinant human IGF1 [2] = biological target: T2, Recombinant human IGF1 (Homo sapiens, UniProt P05019); test: SPR
Human IGF2 [3] = biological target: T1, Human IGF2; test: SPR; remark: listed apart in the source
Recombinant human IGF1 [4] = biological target: T2, Recombinant human IGF1; test: SPR; remark: listed apart in the source

Row | Kd (Biotinylated human IGF1) [nM] | Kd (Biotinylated human IGF2) [nM] | Kd (Human IGF2 [1]) [nM] | koff (Human IGF2 [1]) [s⁻¹] | Kd (Recombinant human IGF1 [2]) [nM] | koff (Recombinant human IGF1 [2]) [s⁻¹] | fold change of the effective KD against the KD of scFv m708.5 (Human IGF2 [3]) [fold] | fold change of the effective KD against the KD of scFv m708.5 (Recombinant human IGF1 [4]) [fold] | Binder
1 | 3.9 | 1.1 | – | – | – | – | – | – | scFv m708.2, yeast-displayed (scFv, V domains shown) VH: QVQLQQPGAEVKKPGSSVKVSCKASGGTFSSYAISWVRQAPGQGLEWMGGIIPILGIANYAQKFQGRVTITADESTSTAYMELSSLRSEDTAVYYCARGPRGYSYNFDYWGQGTLVTVSS VL: DIQMTQSPSSLSASVGDRVTIACRASQTISRYLNWYQQKPGKAPKLLIYAASSLQSGVSSRFSGSGSGTEFTLTISSLQPEDFATYFCQQTYSPPITFGQGTRLEIK
2 | – | – | 1.8 | 0.0004 | 2.2 | 0.0024 | – | – | scFv m708.2, purified soluble (scFv, V domains shown) VH: QVQLQQPGAEVKKPGSSVKVSCKASGGTFSSYAISWVRQAPGQGLEWMGGIIPILGIANYAQKFQGRVTITADESTSTAYMELSSLRSEDTAVYYCARGPRGYSYNFDYWGQGTLVTVSS VL: DIQMTQSPSSLSASVGDRVTIACRASQTISRYLNWYQQKPGKAPKLLIYAASSLQSGVSSRFSGSGSGTEFTLTISSLQPEDFATYFCQQTYSPPITFGQGTRLEIK
3 | – | – | 0.061 | 2.5e-06 | 0.2 | 0.00028 | – | – | scFv m708.5, purified soluble (scFv, V domains shown) VH: QVQLQQLGAEVKMPGSSVKVSCKASGGTFSSYAISWVRQAPGQGLEWMGGIIPTLGIVKYAQKFQGRVTITADKSTSTAYMELSSLGSEDTAVYYCAGGPRGYSYNFDNWGQGTLVTVSS VL: DIQMTQSPSSLSASVGDRVTIVCRASQTISRYVNWYQQKPGKAPKLLIYAASSLQSGVSSRFSGSGSGTEFALTISSLQPEDFATYFCQQTYSPPITFGQGTRLEIK
4 | 0.1 | 0.041 | – | – | – | – | – | – | scFv m708.5, yeast-displayed (scFv, V domains shown) VH: QVQLQQLGAEVKMPGSSVKVSCKASGGTFSSYAISWVRQAPGQGLEWMGGIIPTLGIVKYAQKFQGRVTITADKSTSTAYMELSSLGSEDTAVYYCAGGPRGYSYNFDNWGQGTLVTVSS VL: DIQMTQSPSSLSASVGDRVTIVCRASQTISRYVNWYQQKPGKAPKLLIYAASSLQSGVSSRFSGSGSGTEFALTISSLQPEDFATYFCQQTYSPPITFGQGTRLEIK
5 | – | – | – | – | – | – | 60 | 1000 | IgG1 m708.5 (antibody, V domains shown) VH: QVQLQQLGAEVKMPGSSVKVSCKASGGTFSSYAISWVRQAPGQGLEWMGGIIPTLGIVKYAQKFQGRVTITADKSTSTAYMELSSLGSEDTAVYYCAGGPRGYSYNFDNWGQGTLVTVSS VL: DIQMTQSPSSLSASVGDRVTIVCRASQTISRYVNWYQQKPGKAPKLLIYAASSLQSGVSSRFSGSGSGTEFALTISSLQPEDFATYFCQQTYSPPITFGQGTRLEIK
